Data published in patent publication US20180030090A1 (AGENCY FOR SCIENCE TECHNOLOGY AND RESEARCH, published 2018).
Bridges are numbered along the chain shown (N, C = ends). [ ]: non-standard residue; d: D form. R8 = C=CCCCCCC[C@@](C)(N)C(=O)O; S5 = C=CCCC[C@](C)(N)C(=O)O; Ahx = NCCCCCC(=O)O

Tests used:
[1] = biological target: Mdm2 in murine T22 cells (murine, UniProt P23804 1-489, limits assumed); experiment: cell-based or functional assay
[2] = biological target: T1, Mdm2 (1-125) (UniProt Q00987 1-125); experiment: competitive fluorescence anisotropy, displacement of FAM-labelled 12-1 peptide from Mdm2 (1-125); apparent Kd
T1 construct: range 1-125; also called N-terminal domain of Mdm2; Mdm2 (1 to 125)
T1 sequence (Q00987 1-125 limits assumed): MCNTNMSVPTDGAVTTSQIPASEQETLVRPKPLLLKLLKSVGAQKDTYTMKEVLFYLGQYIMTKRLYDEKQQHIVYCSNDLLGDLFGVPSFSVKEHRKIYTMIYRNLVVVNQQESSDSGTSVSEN
Experimental: All titrations were carried out in triplicate.

Mdm2 in murine T22 cells, sequence (P23804 whole entry): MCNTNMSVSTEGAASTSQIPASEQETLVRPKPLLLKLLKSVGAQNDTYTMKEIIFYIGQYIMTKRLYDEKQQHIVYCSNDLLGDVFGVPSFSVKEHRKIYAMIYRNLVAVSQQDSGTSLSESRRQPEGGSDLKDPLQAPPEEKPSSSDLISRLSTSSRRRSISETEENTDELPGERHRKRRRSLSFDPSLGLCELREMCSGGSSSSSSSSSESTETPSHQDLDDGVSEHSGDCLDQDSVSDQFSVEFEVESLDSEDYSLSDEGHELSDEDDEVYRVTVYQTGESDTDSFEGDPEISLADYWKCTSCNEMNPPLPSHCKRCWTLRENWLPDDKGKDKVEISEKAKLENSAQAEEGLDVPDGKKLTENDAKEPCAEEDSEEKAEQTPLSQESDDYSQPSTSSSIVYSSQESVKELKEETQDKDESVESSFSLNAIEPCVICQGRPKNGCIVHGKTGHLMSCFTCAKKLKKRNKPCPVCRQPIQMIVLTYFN

Row | T22 IC50 (0% µM), T22 p53 reporter assay without serum [1] [µM] | T22 Ic50 (10% µM), T22 p53 reporter assay with 10% fetal calf serum [1] [µM] | Kd [2] [nM] | Binder
1 | 2.75 | 17.9 |  | Ac-TSF[R8]EYWALL[S5]-NH2 (staple 4-11) [sMTide-02 (capped), Ac-TSFX8EYWALLS5-NH2]
2 | ~0.78 | 9.95 | 24.4 | Ac-KK[Ahx]TSF[R8]EYWALL[S5]ENF-NH2 (staple 7-14) [YS-07 (capped), Ac-KK-Ahx-TSFX8EYWALLS5ENF-NH2]
